Reference: patent US20240368239A1, “Novel bispecific protein and use thereof” (SL METAGEN, priority 2020, published 2024)
“Also recorded” adds a separate entry of the source.

Key:
[1] = In vivo pharmacokinetics profile after subcutaneous administration (GLP-1-Fc ELISA and GLP-2-Fc ELISA); set-up: species or system male SD (Sprague Dawley) rats; details: for AUClast / Cmax / Half-life / Tmax: 1 mg/kg SC
Method: First, each protein was administered to 3 male SD (Sprague Dawley) rats per group at a dose of 1 mg/kg by subcutaneous (SC) route. Before injection and after 0.5, 1, 5, 10, 24, 48, 72, 120, and 168 hours after the injection, blood was collected and stored at room temperature for 30 minutes to aggregate. After centrifuging the aggregated blood at 3,000 rpm for 10 minutes, serum of each sample was collected and stored in a cryogenic freezer. Analyses were performed by an assay designed to specifically detect the GLP-1 site and Fc in the administered protein (GLP-1-Fc ELISA) and an assay designed to specifically detect the GLP-2 site and Fc in the administered protein (GLP-2-Fc ELISA). Specifically, a method of loading a biological sample on a plate coated with an antibody that binds to mouse-derived human immunoglobulin G4 (IgG4) to detect the target protein using a biotinylated anti-GLP-1 antibody (GLP-1-Fc ELISA), and a method of loading a biological sample on a plate coated with a monoclonal antibody that specifically reacts with GLP-2, to detect the target protein using a secondary antibody having HRP conjugated to mouse-derived human immunoglobulin G4 (IgG4) (GLP-2-Fc ELISA) were used. The obtained and prepared serum samples were loaded with appropriate dilutions to be analyzed at a position on a straight line of the standard curve.

B6 normal mice [2] = assay: Small intestine changes and nutrient absorption changes (GLP-2-2G, GLP-2-Fc homodimer, MG12-5); assay type: in vivo
Method: In order to observe changes in the small intestine and nutrient absorption capacity following substance administration, an experiment was conducted in B6 normal mice. PBS and GLP-2-2G were administered twice a day, and GLP-2-Fc homodimer and MG12-5 were administered once every three days for 2 weeks. For the GLP-2-Fc homodimer and MG12-5 groups, PBS was administered twice a day, as was in the other administration groups, during the period when no drug was administered. Body weight and dietary intake were monitored at 3-day intervals, and feces were collected before administration, on days 5-6 after administration, and on days 11-12 after administration, and calorimetry was performed using a bomb calorimeter, and also, feed ingested during this period was also subjected to calorimetry through the same analysis. The energy absorption rate was defined as a value obtained by subtracting the calorific value of feces from the caloric value of ingested feed. On day 14 following drug administration, the experimental animals were sacrificed and the small intestine (pylorus ileum) was weighed.

Balb/c-nude mice = assay: PET-MRI tissue distribution of Zr89-labelled proteins; assay type: in vivo; details: Zr89 label, SC
Description: Next, the present inventors performed an experiment in Balb/c-nude mice in order to observe the distribution in each tissue organ following the administration of a substance. Zr^89 was used as a radiotracer for tracking the distribution after administration of each substance. Each substance to be administered was labeled with Zr^89 as a reaction condition and a chelator selected through a preliminary test. The labeled Zr^89-protein was purified using a PD-10 column, and Zr^89 labeling efficiency and purity were confirmed using Radio TLC and SEC-HPLC. The labeling efficiency of the Zr^89-protein of 90% or more and the purity of 80% or more were determined to be appropriate, and the labeled protein was administered subcutaneously at 0.2 mCi/0.2 cc. Each administration substance was administered to three animals and static images for 20 minutes were obtained using PET-MRI at 1 hour, 6 hours, 24 hours, 48 hours, and 168 hours after injection. Through image analysis, the distribution of drugs as a function of time in the liver, small intestine, and large intestine was expressed as SUV (Standardized Uptake Value) and comparatively analyzed.

B6 normal mice [3] = assay: MG12 vs. GLP-1 and GLP-2 combo: body weight and small intestine changes; assay type: in vivo; details: 12 days SC
Method: In particular, in order to observe changes in body weight and the small intestine following the substance administration, an experiment was conducted in B6 normal mice. […] After starting drug administration twice a week during the test period, feed intake was measured and expressed as cumulative feed intake, and pre-autopsy body weight was measured to calculate the body weight vs. feed intake. After the autopsy, the weight of the small intestine, and mucosal depth and villus height of the duodenum and the jejunum were measured. More specifically, after the autopsy, the entire gastrointestinal tract of the mouse was separated, the mesentery and the pancreas were excised, and the area where the ileum and the cecum meet was cut to separate the small intestine and the large intestine.

[4] = test system: C57BL/6J male mice on CD-HFD; assay: Choline-deficient high-fat diet (CD-HFD) metabolic syndrome model; assay type: in vivo
Description: To this end, in particular, with respect to experimental animals induced with fatty liver and steatohepatitis through high-fat diet, as shown in FIG. 13a and Table 8, the present inventors performed a choline-deficient high-fat diet ([…]) for 12 weeks using 8-week-old C57BL/6J male mice, and then 20 nmol/kg of MG12-5, MG12-8, and each of 10 nmol/kg of GLP-1 and GLP-2 combination (combo) were administrated twice subcutaneously twice to experimental animals respectively, along with a CD-HFD diet for 4 weeks, and various serological and histological analyses were performed.
First, the present inventors recorded changes in body weight and food intake of experimental animals during the experiment period.
As described above, after 16 weeks on CD-HFD, mice treated with drugs (MG12-5, MG12-8, and GLP-1 and GLP-2 combo) twice a week for 4 weeks, after food restriction 12 hours, were intraperitoneally administered with glucose at a dose of 2 g/kg, and changes in blood glucose level were measured at a time interval for a total of 3 hours. […] FIG. 14b is a graph showing the area under the curve related to changes in blood glucose level.
The present inventors sacrificed and extracted liver tissues from a mouse having completed the drug administration experiment as described above, and captured photographs thereof to examine changes in the size and color of the liver tissues, and measured the weight of the extracted liver tissues as well as ALT blood level, which is a measure of hepatotoxicity level.

[5] = 20 nmol/kg SC, 4 weeks with CD-HFD
[6] = excised liver at end of experiment

B1: MG12-5: Knob/hole Fc heterodimer: GLP-1/Exendin 4 hybrid (SEQ 5), unmodified linker, first fusion protein SEQ 28; GLP-2 (SEQ 17), second fusion protein SEQ 34 (protein)
chain 1: HGEGTFTSDVSSYLEGQAAKEFIAWLVKGGPSSGAPPPSGGGGSGGGGSGGGGSEKEKEEQEERTHTCPPCPSHTQPLGVFLFPPKPKDQLMISRTPEVTCVVVDVSQEDPEVQFNWYVDGVEVHNAKTKPREEQFNSTYRVVSVLTVLHQDWLNGKEYKCKVSNKGLPSSIEKTISKAKGQPREPQVYTLPPCQEEMTKNQVSLWCLVKGFYPSDIAVEWESNGQPENNYKTTPPVLDSDGSFFLYSRLTVDKSRWQEGNVFSCSVLHEALHNHYTQKSLSLSLGK
chain 2: HGDGSFSDEMNTILDNLAARDFINWLIQTKITDGGGGSGGGGSGGGGSEKEKEEQEERTHTCPPCPSHTQPLGVFLFPPKPKDQLMISRTPEVTCVVVDVSQEDPEVQFNWYVDGVEVHNAKTKPREEQFNSTYRVVSVLTVLHQDWLNGKEYKCKVSNKGLPSSIEKTISKAKGQPREPQVCTLPPSQEEMTKNQVSLSCAVKGFYPSDIAVEWESNGQPENNYKTTPPVLDSDGSFFLVSRLTVDKSRWQEGNVFSCSVLHEALHNHYTQKSLSLSLGK
[1]; GLP-2-Fc ELISA
  terminal half-life, rank among MG12-1, 3, 4 and 5: shortest half-life
[1]; both ELISA methods
  Cmax, rank among MG12-1, 3, 4 and 5: highest value
[1]; rat, GLP-1-Fc ELISA (Table 5)
  AUClast: 26.0596 ± 3.0285 µg·h/mL
  Cmax: 1.0362 ± 0.0595 µg/mL
  Half-life: 18.4 ± 6.2 h
  Tmax: 10 h
[1]; rat, GLP-2-Fc ELISA (Table 6)
  AUClast: 188.7416 ± 7.8705 µg·h/mL
  Cmax: 3.2013 ± 0.0956 µg/mL
  Half-life: 30.6 ± 2.1 h
  Tmax: 24.0 ± 0.0 h
[1]; rat, SC
  AUClast, rank among MG12-1, 3, 4 and 5: highest
B6 normal mice [2]; 2 weeks dosing
  body weight: an increase significant compared to the negative control group; also recorded: statistically significant body weight increase compared to other drug administered groups
B6 normal mice [2]; Week 1, after the second dose
  energy absorption rate: statistically significant increase compared to the vehicle-administered group
B6 normal mice [2]; Week 2, after the fourth dose
  energy absorption rate: an increase even more significant than GLP-2-Fc homo
B6 normal mice [2]; day 14, 2 weeks dosing
  small intestine weight: most notable increase in the small intestine weight; also recorded: statistically significant increase compared to the other two drug administered group; also recorded: superior effect of increasing small intestine weight to GLP-2-2G and GLP-2-Fc homodimer
Balb/c-nude mice
  distribution to the liver (SUV): reduced or showed no difference compared to Fc
  distribution to the small intestine and large intestine (SUV): significantly high compared to that of GLP-1-Fc homodimer and GLP-2-Fc homodimer
B6 normal mice [3]; normalized to cumulative feed intake
  body weight increase vs. feed intake: statistically significant body weight increase compared to the co-administered group
B6 normal mice [3]; Ex-4 10 nmol/kg, others 33.3 nmol/kg
  small intestine weight: statistically significant increase in the small intestine compared to the co-administered group
[4]; [5]
  body weight (relative change): greater relative body weight reduction effect
  feed intake: lower feed intake
[4]; after 16 weeks of CD-HFD diet
  blood ALT level: decrease in ALT level to a level similar to that of the normal diet group
[4]; [6]
  liver color: liver color similar to that of the normal diet group
  liver weight: reduced
[4]; glucose 2 g/kg i.p. after 12 hours food restriction, 3 hours
  blood glucose level, intraperitoneal glucose tolerance test: statistically significant decrease in blood glucose level
[4]; intraperitoneal glucose tolerance test
  area under the curve of the change in blood glucose level: decreased two times or more
